Assay results from paper PMC5382266 (Nature Communications, 2017).
One block for each binder: values may come before it.

B7: full-length FLAG-tagged human TSLPR (receptor, UniProt Q9HC73-1 23-371, looked up)
chain: QGGAAEGVQIQIIYFNLETVQVTWNASKYSRTNLTFHYRFNGDEAYDQCTNYLLQEGHTSGCLLDAEQRDDILYFSIRNGTHPVFTASRWMVYYLKPSSPKHVRFSWHQDAVTVTCSDLSYGDLLYEVQYRSPFDTEWQSKQENTCNVTIEGLDAEKCYSFWVRVKAMEDVYGPDTYPSDWSEVTCWQRGEIRDACAETPTPPKPKLSKFILISSLAILLMVSLLLLSLWKLWRVKKFLIPSVPDPKSIFPGLFEIHQGNFQEWITDTQNVAHLHKMAGAEQESGPEEPLVVQLAKTEAESPRMLDPQTEEKEASGGSLQLPHQPLQGGDVVTIGGFTFVMNDRSYVAL

Assays:
[1] = biological target: T1, preformed TSLP:TSLPR binary complex (human, UniProt Q969D9-1 29-159; Q9HC73-1 23-221, R127A | R130S, biotin, C-terminal (in vivo biotinylation)); assay: BLI; TSLP-loaded biosensors incubated with 320 nM TSLPR, which was also in the assay buffer and all IL-7Rα samples; PBS with 0.01% BSA and 0.002% Tween 20, 25 °C; 1:1 model; conditions: both partners purified
T1 construct: signal peptide in the construct; as the chain of m1; extracellular fragment of human TSLPR, NP_071431.2, residues 1-221; as the chain of m2; 320 nM TSLPR was kept in the kinetics buffer and in all IL-7Rα samples; also called TSLP:TSLPR complex; not shown: Avi tag (from the vector pHL-AVITAG), C-terminal, kept

[2] = biological target: wild type TSLP (TSLP^R127A/R130S) (human, UniProt Q969D9-1 29-159, R127A | R130S); assay: cell-based or functional assay
[3] = biological target: T2, biotinylated TSLP^R127A/R130S (human, UniProt Q969D9-1 29-159, R127A | R130S, biotin, C-terminal (in vivo biotinylation)); assay: BLI; biotinylated TSLP^R127A/R130S on streptavidin biosensors, analyte in solution; PBS with 0.01% BSA and 0.002% Tween 20, 25 °C, Octet RED96; 1:1 model; conditions: both partners purified
T2 construct: signal peptide in the construct; glycosylated, mammalian-derived; also called thymic stromal lymphopoietin; source: HEK293T, co-transfected with pDisplay-BirA-ER, purified from conditioned medium (IMAC, SEC); not shown: Avi tag (from the vector pHL-AVITAG), C-terminal, kept

[4] = biological target: T3, full-length HA-tagged human IL-7Rα (human, UniProt P16871-1 21-459)
T3 sequence (looked up): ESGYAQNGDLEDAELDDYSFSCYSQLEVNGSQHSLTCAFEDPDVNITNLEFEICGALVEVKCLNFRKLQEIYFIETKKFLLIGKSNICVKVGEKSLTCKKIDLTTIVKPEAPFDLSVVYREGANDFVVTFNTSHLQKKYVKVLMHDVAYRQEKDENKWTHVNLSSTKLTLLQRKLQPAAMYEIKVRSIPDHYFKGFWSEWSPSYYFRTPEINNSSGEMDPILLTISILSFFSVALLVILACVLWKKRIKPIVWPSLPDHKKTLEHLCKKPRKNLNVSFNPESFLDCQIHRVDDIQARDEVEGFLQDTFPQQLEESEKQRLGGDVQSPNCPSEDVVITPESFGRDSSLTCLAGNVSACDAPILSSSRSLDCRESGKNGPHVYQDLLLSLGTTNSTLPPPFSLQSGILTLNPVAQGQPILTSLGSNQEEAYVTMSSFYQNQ

[5] = biological target: T3, full-length HA-tagged human IL-7Rα; assay: cell-based or functional assay
[6] = biological target: B7; assay: cell-based or functional assay

B3: TSLP-trap2 (other, human)
chain: ESGYAQNGDLEDAELDDYSFSCYSQLEVNGSQHSLTCAFEDPDVNITNLEFEICGALVEVKCLNFRKLQEIYFIETKKFLLIGKSNICVKVGEKSLTCKKIDLTTIVKPEAPFDLSVVYREGANDFVVTFNTSHLQKKYVKVLMHDVAYRQEKDENKWTHVNLSSTKLTLLQRKLQPAAMYEIKVRSIPDHYFKGFWSEWSPSYYFRTPEINNSSGEMDGGSGGSGGSGGSGGSGGSGGSGGSGGSGGSGGSGGSGGSGGSGGSGGSGGSGGSGGSGGSQGGAAEGVQIQIIYFNLETVQVTWNASKYSRTNLTFHYRFNGDEAYDQCTNYLLQEGHTSGCLLDAEQRDDILYFSIRNGTHPVFTASRWMVYYLKPSSPKHVRFSWHQDAVTVTCSDLSYGDLLYEVQYRSPFDTEWQSKQENTCNVTIEGLDAEKCYSFWVRVKAMEDVYGPDTYPSDWSEVTCWQRGEIRDACAETPTPPKPKLSK
- IC50 of inhibition of STAT5 activity induced by 10 pM TSLP in HEK293T cells expressing TSLPR and IL-7Rα [2]: 44 pM

B4: TSLP-trap1 (other, human)
chain: QGGAAEGVQIQIIYFNLETVQVTWNASKYSRTNLTFHYRFNGDEAYDQCTNYLLQEGHTSGCLLDAEQRDDILYFSIRNGTHPVFTASRWMVYYLKPSSPKHVRFSWHQDAVTVTCSDLSYGDLLYEVQYRSPFDTEWQSKQENTCNVTIEGLDAEKCYSFWVRVKAMEDVYGPDTYPSDWSEVTCWQRGEIRDACAETPTPPKPKLSKGGSGGSGGSGGSGGSGGSGGSGGSGGSGGSGGSGGSGGSGGSGGSGGSGGSGGSGGSGGSESGYAQNGDLEDAELDDYSFSCYSQLEVNGSQHSLTCAFEDPDVNITNLEFEICGALVEVKCLNFRKLQEIYFIETKKFLLIGKSNICVKVGEKSLTCKKIDLTTIVKPEAPFDLSVVYREGANDFVVTFNTSHLQKKYVKVLMHDVAYRQEKDENKWTHVNLSSTKLTLLQRKLQPAAMYEIKVRSIPDHYFKGFWSEWSPSYYFRTPEINNSSGEMD
notes: signal peptide in the construct; extracellular domain of human TSLPR, NP_071431.2, residues 1-231 (native secretion signal of TSLPR used); flexible (Gly-Gly-Ser)20 linker, written out from the printed formula; extracellular part of human IL-7Rα, NP_002176.2, residues 21-239; also called Human TSLP-trap1; hTSLPtrap1
- IC50 of inhibition of STAT5 activity induced by 10 pM TSLP in HEK293T cells expressing TSLPR and IL-7Rα [2]: 67 pM
- Kd [3]: 120 pM
- koff [3]: 2e-05 s⁻¹

B5: TSLPR-Asp157Ala/Glu159Ala (receptor)
chain: QGGAAEGVQIQIIYFNLETVQVTWNASKYSRTNLTFHYRFNGDEAYDQCTNYLLQEGHTSGCLLDAEQRDDILYFSIRNGTHPVFTASRWMVYYLKPSSPKHVRFSWHQDAVTVTCSDLSYGDLLYEVQYRSPFATAWQSKQENTCNVTIEGLDAEKCYSFWVRVKAMEDVYGPDTYPSDWSEVTCWQRGEIRDACAETPTPPKPKLSKFILISSLAILLMVSLLLLSLWKLWRVKKFLIPSVPDPKSIFPGLFEIHQGNFQEWITDTQNVAHLHKMAGAEQESGPEEPLVVQLAKTEAESPRMLDPQTEEKEASGGSLQLPHQPLQGGDVVTIGGFTFVMNDRSYVAL
- EC50 of TSLP-induced STAT5 activity in cells expressing mutant TSLPR and IL-7Rα [4]: 85 pM

Binder: B7
- EC50 of TSLP-induced STAT5 activity in cells expressing WT TSLPR and IL-7Rα (control of the site III mutants) [5]: 11 pM

B9: TSLP-Arg149Ser (ligand, human, UniProt Q969D9-1 29-159, looked up)
chain: YDFTNCDFEKIKAAYLSTISKDLITYMSGTKSTEFNNTVSCSNRPHCLTEIQSLTFNPTAGCASLAKEMFAMKTKAALAIWCPGYSETQINATQAMKKARKSKVTTNKCLEQVSQLQGLWSRFNRPLLKQQ
- EC50 of STAT5 activity (luciferase reporter) induced by TSLP in HEK293T cells expressing WT TSLPR and IL-7Rα [6]: 2.8 pM

B10: TSLP-Arg153Ser (ligand, human, UniProt Q969D9-1 29-159, looked up)
chain: YDFTNCDFEKIKAAYLSTISKDLITYMSGTKSTEFNNTVSCSNRPHCLTEIQSLTFNPTAGCASLAKEMFAMKTKAALAIWCPGYSETQINATQAMKKARKSKVTTNKCLEQVSQLQGLWRRFNSPLLKQQ
- EC50 of STAT5 activity (luciferase reporter) induced by TSLP in HEK293T cells expressing WT TSLPR and IL-7Rα [6]: 19 pM

B11: TSLP-Arg150Ser (ligand, human, UniProt Q969D9-1 29-159, looked up)
chain: YDFTNCDFEKIKAAYLSTISKDLITYMSGTKSTEFNNTVSCSNRPHCLTEIQSLTFNPTAGCASLAKEMFAMKTKAALAIWCPGYSETQINATQAMKKARKSKVTTNKCLEQVSQLQGLWRSFNRPLLKQQ
- EC50 of STAT5 activity (luciferase reporter) induced by TSLP in HEK293T cells expressing WT TSLPR and IL-7Rα [6]: 9.5 pM

B12: TSLP-Arg149Ser/Arg150Ser (ligand, human, UniProt Q969D9-1 29-159, looked up)
chain: YDFTNCDFEKIKAAYLSTISKDLITYMSGTKSTEFNNTVSCSNRPHCLTEIQSLTFNPTAGCASLAKEMFAMKTKAALAIWCPGYSETQINATQAMKKARKSKVTTNKCLEQVSQLQGLWSSFNRPLLKQQ
- EC50 of STAT5 activity (luciferase reporter) induced by TSLP in HEK293T cells expressing WT TSLPR and IL-7Rα [6]: 100 pM

Results, then the binder that gave them:

- Kd [1]: 29000 pM
- koff [1]: 0.0036 s⁻¹
- kon [1]: 123000 M⁻¹ s⁻¹
B1: soluble IL-7Rα ectodomain (domain or fragment, human, UniProt P16871-1 21-239, looked up)
chain: ESGYAQNGDLEDAELDDYSFSCYSQLEVNGSQHSLTCAFEDPDVNITNLEFEICGALVEVKCLNFRKLQEIYFIETKKFLLIGKSNICVKVGEKSLTCKKIDLTTIVKPEAPFDLSVVYREGANDFVVTFNTSHLQKKYVKVLMHDVAYRQEKDENKWTHVNLSSTKLTLLQRKLQPAAMYEIKVRSIPDHYFKGFWSEWSPSYYFRTPEINNSSGEMD
notes: signal peptide in the construct; extracellular fragment of human IL-7Rα, NP_002176.2, residues 1-239; also called interleukin 7 receptor α-chain

- IC50 of inhibition of STAT5 activity induced by 10 pM TSLP by an equimolar mixture of the soluble TSLPR and IL-7Rα ectodomains [2]: 49 nM
B2: soluble TSLPR ectodomain (domain or fragment, human, UniProt Q9HC73-1 23-221, looked up)
chain: QGGAAEGVQIQIIYFNLETVQVTWNASKYSRTNLTFHYRFNGDEAYDQCTNYLLQEGHTSGCLLDAEQRDDILYFSIRNGTHPVFTASRWMVYYLKPSSPKHVRFSWHQDAVTVTCSDLSYGDLLYEVQYRSPFDTEWQSKQENTCNVTIEGLDAEKCYSFWVRVKAMEDVYGPDTYPSDWSEVTCWQRGEIRDACAET

- EC50 of TSLP-induced STAT5 activity in cells expressing mutant TSLPR and IL-7Rα [4]: 49 pM
B6: TSLPR-Asp176Ala/Glu178Ala/Lys179Ala (receptor)
chain: QGGAAEGVQIQIIYFNLETVQVTWNASKYSRTNLTFHYRFNGDEAYDQCTNYLLQEGHTSGCLLDAEQRDDILYFSIRNGTHPVFTASRWMVYYLKPSSPKHVRFSWHQDAVTVTCSDLSYGDLLYEVQYRSPFDTEWQSKQENTCNVTIEGLAAAACYSFWVRVKAMEDVYGPDTYPSDWSEVTCWQRGEIRDACAETPTPPKPKLSKFILISSLAILLMVSLLLLSLWKLWRVKKFLIPSVPDPKSIFPGLFEIHQGNFQEWITDTQNVAHLHKMAGAEQESGPEEPLVVQLAKTEAESPRMLDPQTEEKEASGGSLQLPHQPLQGGDVVTIGGFTFVMNDRSYVAL

- EC50 of TSLP-induced STAT5 activity in cells expressing mutant TSLPR and IL-7Rα [4]: 400 pM
B8: TSLPR-Phe156Ala/Asp157Ala/Glu159Ala (receptor)
chain: QGGAAEGVQIQIIYFNLETVQVTWNASKYSRTNLTFHYRFNGDEAYDQCTNYLLQEGHTSGCLLDAEQRDDILYFSIRNGTHPVFTASRWMVYYLKPSSPKHVRFSWHQDAVTVTCSDLSYGDLLYEVQYRSPAATAWQSKQENTCNVTIEGLDAEKCYSFWVRVKAMEDVYGPDTYPSDWSEVTCWQRGEIRDACAETPTPPKPKLSKFILISSLAILLMVSLLLLSLWKLWRVKKFLIPSVPDPKSIFPGLFEIHQGNFQEWITDTQNVAHLHKMAGAEQESGPEEPLVVQLAKTEAESPRMLDPQTEEKEASGGSLQLPHQPLQGGDVVTIGGFTFVMNDRSYVAL
